Experimental data as given in IntAct's records for PubMed 29039417.

B1: Protein PTHB1 (Homo sapiens), Q3SYG4 (parent)
chain: MSLFKARDWWSTILGDKEEFDQGCLCLANVDNSGNGQDKIIVGSFMGYLRIFSPHPAKTGDGAQAEDLLLEVDLRDPVLQVEVGKFVSGTEMLHLAVLHSRKLCVYSVSGTLGNVEHGNQCQMKLMYEHNLQRTACNMTYGSFGGVKGRDLICIQSMDGMLMVFEQESYAFGRFLPGFLLPGPLAYSSRTDSFLTVSSCQQVESYKYQVLAFATDADKRQETEQQKLGSGKRLVVDWTLNIGEQALDICIVSFNQSASSVFVLGERNFFCLKDNGQIRFMKKLDWSPSCFLPYCSVSEGTINTLIGNHNNMLHIYQDVTLKWATQLPHIPVAVRVGCLHDLKGVIVTLSDDGHLQCSYLGTDPSLFQAPNVQSRELNYDELDVEMKELQKIIKDVNKSQGVWPMTEREDDLNVSVVVSPNFDSVSQATDVEVGTDLVPSVTVKVTLQNRVILQKAKLSVYVQPPLELTCDQFTFEFMTPDLTRTVSFSVYLKRSYTPSELEGNAVVSYSRPTDRNPDGIPRVIQCKFRLPLKLICLPGQPSKTASHKITIDTNKSPVSLLSLFPGFASQSDDDQVNVMGFHFLGGARITVLASKTSQRYRIQSEQFEDLWLITNELILRLQEYFEKQGVKDFACSFSGSIPLQEYFELIDHHFELRINGEKLEELLSERAVQFRAIQRRLLARFKDKTPAPLQHLDTLLDGTYKQVIALADAVEENQGNLFQSFTRLKSATHLVILLIALWQKLSADQVAILEAAFLPLQEDTQELGWEETVDAAISHLLKTCLSKSSKEQALNLNSQLNIPKDTSQLKKHITLLCDRLSKGGRLCLSTDAAAPQTMVMPGGCTTIPESDLEERSVEQDSTELFTNHRHLTAETPRPEVSPLQGVSE
partner: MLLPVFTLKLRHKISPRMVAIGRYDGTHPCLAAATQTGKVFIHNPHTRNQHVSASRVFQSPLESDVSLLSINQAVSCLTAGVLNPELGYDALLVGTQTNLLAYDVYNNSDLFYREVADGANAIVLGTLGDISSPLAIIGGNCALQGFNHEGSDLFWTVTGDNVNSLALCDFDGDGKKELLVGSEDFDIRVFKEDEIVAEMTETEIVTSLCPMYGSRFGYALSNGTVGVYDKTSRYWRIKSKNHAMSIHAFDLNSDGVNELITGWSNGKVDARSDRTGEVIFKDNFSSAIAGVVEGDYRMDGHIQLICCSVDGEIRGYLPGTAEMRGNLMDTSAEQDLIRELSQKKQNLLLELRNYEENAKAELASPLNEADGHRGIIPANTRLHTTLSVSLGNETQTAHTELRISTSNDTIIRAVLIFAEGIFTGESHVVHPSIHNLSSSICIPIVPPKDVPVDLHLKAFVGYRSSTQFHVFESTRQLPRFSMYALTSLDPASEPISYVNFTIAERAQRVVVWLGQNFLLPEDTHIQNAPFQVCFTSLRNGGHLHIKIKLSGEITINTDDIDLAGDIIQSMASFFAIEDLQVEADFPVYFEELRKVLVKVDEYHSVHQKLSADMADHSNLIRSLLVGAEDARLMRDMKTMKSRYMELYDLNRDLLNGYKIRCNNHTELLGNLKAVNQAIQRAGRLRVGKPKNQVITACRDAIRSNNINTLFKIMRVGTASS
B2: Protein PTHB1 (Homo sapiens), Q3SYG4 (parent)
chain: B1 chain
partner: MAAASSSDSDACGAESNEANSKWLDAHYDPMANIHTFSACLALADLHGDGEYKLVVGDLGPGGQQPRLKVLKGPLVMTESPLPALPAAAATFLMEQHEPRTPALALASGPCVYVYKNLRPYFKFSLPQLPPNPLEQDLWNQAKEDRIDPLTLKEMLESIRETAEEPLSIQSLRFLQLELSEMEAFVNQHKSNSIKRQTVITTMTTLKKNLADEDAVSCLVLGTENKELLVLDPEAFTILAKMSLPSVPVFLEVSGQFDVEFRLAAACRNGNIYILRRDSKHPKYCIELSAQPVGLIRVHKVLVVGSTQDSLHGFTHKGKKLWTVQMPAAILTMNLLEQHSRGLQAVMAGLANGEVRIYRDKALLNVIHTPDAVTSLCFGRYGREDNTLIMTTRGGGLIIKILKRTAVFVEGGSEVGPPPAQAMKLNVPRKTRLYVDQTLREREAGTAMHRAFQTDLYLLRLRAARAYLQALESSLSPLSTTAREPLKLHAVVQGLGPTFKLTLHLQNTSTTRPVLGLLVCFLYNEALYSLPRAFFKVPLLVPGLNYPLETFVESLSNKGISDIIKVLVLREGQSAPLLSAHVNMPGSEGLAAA

Variants of: B1
Conditions: with bbs2_human BBS2, Q9BXC9
For S414E, the “effect of a mutation on the interaction” value was “with no effect”. In the case of S414A, the “effect of a mutation on the interaction” value is reported as “with no effect”. S414K was tested, and the “effect of a mutation on the interaction” value was “with no effect”. With V417A the “effect of a mutation on the interaction” value was “with no effect”. V417K was tested, and the “effect of a mutation on the interaction” value was “with no effect”. With V417E the “effect of a mutation on the interaction” value was “with no effect”. D410K was tested, and the “effect of a mutation on the interaction” value was “with no effect”. For D410E, the “effect of a mutation on the interaction” value was “with no effect”. With D410A the “effect of a mutation on the interaction” value was “with no effect”. In the case of L411E, the “effect of a mutation on the interaction” value is reported as “with no effect”. For L411K, the “effect of a mutation on the interaction” value was “with no effect”. L411A was tested, and the “effect of a mutation on the interaction” value was “with no effect”. D409E was tested, and the “effect of a mutation on the interaction” value was “with no effect”. With D409K the “effect of a mutation on the interaction” value was “with no effect”. D409A was tested, and the “effect of a mutation on the interaction” value was “with no effect”. V413K was tested, and the “effect of a mutation on the interaction” value was “with no effect”. In the case of V413A, the “effect of a mutation on the interaction” value is reported as “with no effect”. In the case of V413E, the “effect of a mutation on the interaction” value is reported as “with no effect”. With D422A the “effect of a mutation on the interaction” value was “with no effect”. In the case of T405A, the “effect of a mutation on the interaction” value is reported as “with no effect”. For T405E, the “effect of a mutation on the interaction” value was “with no effect”. For T405K, the “effect of a mutation on the interaction” value was “with no effect”. P419K was tested, and the “effect of a mutation on the interaction” value was “with no effect”. P419E was tested, and the “effect of a mutation on the interaction” value was “with no effect”. With P419A the “effect of a mutation on the interaction” value was “with no effect”. V416K was tested, and the “effect of a mutation on the interaction” value was “with no effect”. V416E was tested, and the “effect of a mutation on the interaction” value was “with no effect”. With V416A the “effect of a mutation on the interaction” value was “with no effect”. For N420K, the “effect of a mutation on the interaction” value was “with no effect”. N420E was tested, and the “effect of a mutation on the interaction” value was “with no effect”. With N420A the “effect of a mutation on the interaction” value was “with no effect”. E408K was tested, and the “effect of a mutation on the interaction” value was “with no effect”. With E408A the “effect of a mutation on the interaction” value was “with no effect”. In the case of V415K, the “effect of a mutation on the interaction” value is reported as “with no effect”. In the case of V415A, the “effect of a mutation on the interaction” value is reported as “with no effect”. With V415E the “effect of a mutation on the interaction” value was “with no effect”. For S418E, the “effect of a mutation on the interaction” value was “with no effect”. With S418A the “effect of a mutation on the interaction” value was “with no effect”. With S418K the “effect of a mutation on the interaction” value was “with no effect”. For R407A, the “effect of a mutation on the interaction” value was “with no effect”. In the case of R407E, the “effect of a mutation on the interaction” value is reported as “with no effect”. With R407K the “effect of a mutation on the interaction” value was “with no effect”. For F421K, the “effect of a mutation on the interaction” value was “with no effect”. With F421A the “effect of a mutation on the interaction” value was “with no effect”. In the case of F421E, the “effect of a mutation on the interaction” value is reported as “with no effect”. For N412K, the “effect of a mutation on the interaction” value was “with no effect”. For N412A, the “effect of a mutation on the interaction” value was “with no effect”. In the case of N412E, the “effect of a mutation on the interaction” value is reported as “with no effect”. In the case of E406K, the “effect of a mutation on the interaction” value is reported as “with no effect”. With E406A the “effect of a mutation on the interaction” value was “with no effect”.

Variants of: B2
Conditions: with bbs1_human BBS1, Q8NFJ9
For L757I, the “effect of a mutation on the interaction” value was “disrupting interaction strength”. In the case of I738A, the “effect of a mutation on the interaction” value is reported as “disrupting interaction strength”. I707E was tested, and the “effect of a mutation on the interaction” value was “with no effect”. A633V was tested, and the “effect of a mutation on the interaction” value was “disrupting interaction strength”. For P464K, the “effect of a mutation on the interaction” value was “with no effect”. In the case of F476E, the “effect of a mutation on the interaction” value is reported as “with no effect”. With L827K the “effect of a mutation on the interaction” value was “with no effect”. Q597R was tested, and the “effect of a mutation on the interaction” value was “disrupting interaction strength”. With E753A the “effect of a mutation on the interaction” value was “with no effect”. For E873K, the “effect of a mutation on the interaction” value was “with no effect”. For L733K, the “effect of a mutation on the interaction” value was “with no effect”. For A775E, the “effect of a mutation on the interaction” value was “with no effect”. For F582A, the “effect of a mutation on the interaction” value was “with no effect”. With C816E the “effect of a mutation on the interaction” value was “with no effect”. In the case of D696V, the “effect of a mutation on the interaction” value is reported as “disrupting interaction strength”. With P881E the “effect of a mutation on the interaction” value was “with no effect”. In the case of D650K, the “effect of a mutation on the interaction” value is reported as “with no effect”. L815E was tested, and the “effect of a mutation on the interaction” value was “with no effect”. In the case of I657K, the “effect of a mutation on the interaction” value is reported as “with no effect”. With I751K the “effect of a mutation on the interaction” value was “with no effect”. In the case of G565K, the “effect of a mutation on the interaction” value is reported as “with no effect”. D830A was tested, and the “effect of a mutation on the interaction” value was “with no effect”. G579A was tested, and the “effect of a mutation on the interaction” value was “with no effect”. V450A was tested, and the “effect of a mutation on the interaction” value was “with no effect”. In the case of L808A, the “effect of a mutation on the interaction” value is reported as “with no effect”. In the case of S777A, the “effect of a mutation on the interaction” value is reported as “with no effect”. For S855E, the “effect of a mutation on the interaction” value was “with no effect”. With R656K the “effect of a mutation on the interaction” value was “with no effect”. With T434E the “effect of a mutation on the interaction” value was “with no effect”. In the case of E499A, the “effect of a mutation on the interaction” value is reported as “with no effect”. For Q569A, the “effect of a mutation on the interaction” value was “with no effect”. In the case of L680A, the “effect of a mutation on the interaction” value is reported as “with no effect”. With H867A the “effect of a mutation on the interaction” value was “with no effect”. In the case of F721S, the “effect of a mutation on the interaction” value is reported as “disrupting interaction strength”. With K492A the “effect of a mutation on the interaction” value was “with no effect”. With N448E the “effect of a mutation on the interaction” value was “with no effect”. T865K was tested, and the “effect of a mutation on the interaction” value was “with no effect”. With N515K the “effect of a mutation on the interaction” value was “with no effect”. With R876A the “effect of a mutation on the interaction” value was “with no effect”. T473K was tested, and the “effect of a mutation on the interaction” value was “with no effect”. For L452A, the “effect of a mutation on the interaction” value was “with no effect”.
